Results: US20230002798A1, “PROCESS FOR THE PREPARATION OF A FERMENTABLE SUGAR COMPOSITION AND THE FERMENTATION THEREOF” (WeissBioTech GmbH, priority 2019, published 2023)

B1: Agl1: oligo-1,6-glucosidase of Bifidobacterium breve UCC2003, amino acid sequence SEQ ID NO:1, expressed in Bacillus subtilis (protein)
chain: MMTTFNRAIIPDAIRTNGATPNPWWSNAVVYQIYPRSFQDTNGDGFGDLKGITSRLDYLADLGVDVLWLSPVYKSPQDDNGYDISDYQDIDPLFGTLDDMDELLAEAHKRGLKVVMDLVVNHTSDEHAWFEASKNKDDEHADWYWWRPARPGTTPGEPGSEPNQWGSYFGGSAWEYCPERGEYYLHQFSKKQPDLNWENPAVRRAVYDMMNWWLDRGIDGFRMDVITLISKRTDANGRLPGEYGSELDDLPVGEEGYSNPNPFCADGPRQDEFLKEMRREVFAGREGFLTVGEAPGITPVRNEHITNPANGELDMLFLFDHVDFDCDGVKWKPLPLDLPGFKRIMAGYQTAVENVGWASLFTGNHDQPRVVSRWGDDSSEESRVRSAKALGLMLHMHRGTPYVYQGEELGMTNAHFTSLDQYRDLESLNAYRQRVEEAKVQSPESMLAGIAARGRDNSRTPMQWDGSAYAGFTAPDAATEPWISVNPNHAEINAAGEFDDPDSVYAFYKKLIALRHNSSIVAAGEWQLIDADDAHVYAFTRTLGNERLLVVVNLSGRTVDLPRESTELIAGGVTEPDIILSTYDAPHTVVSLANRELDPWEAAAVQL
modifications: Bifidobacterium breve UCC2003; ACM89182.1 alpha-glucosidase 1
B2: Gth: oligo-1,6-glucosidase of Parageobacillus thermoglucosidasius, amino acid sequence SEQ ID NO:2, expressed in Bacillus subtilis (protein, listed as Parageobacillus thermoglucosidasius)
chain: MERVWWKEAVVYQIYPRSFYDSNGDGIGDIRGIIAKLDYLKELGVDVVWLSPVYKSPNDDNGYDISDYRDIMDEFGTMADWKTMLEEMHKRGIKLVMDLVVNHTSDEHPWFIESRKSKDNPYRDYYIWRPGKNGKEPNNWESVFSGSAWEYDEMTGEYYLHLFSKKQPDLNWENPKVRREVYEMMKFWLDKGVDGFRMDVINMISKVPELPDGEPQSGKKYASGSRYYMNGPRVHEFLQEMNREVLSKYDIMTVGETPGVTPKEGILYTDPSRRELNMVFQFEHMDLDSGPGGKWDIRPWSLADLKKTMTKWQKELEGKGWNSLYLNNHDQPRAVSRFGDDGKYRVESAKMLATFLHMMQGTPYIYQGEEIGMTNVRFPSIEDYRDIETLNMYKERVEEYGEDPQEVMEKIYYKGRDNARTPMQWDDSENAGFTAGTPWIPVNPNYKEINVKAALEDPNSVFHYYKKLIQLRKQHDIIVYGTYDLILEDDPYIYAYTRTLGNEQLIVITNFSEKTPVFRLPDHIIYKTKELLISNYDVDEAEELKEIRLRPWEARVYKIRLP
modifications: WP_042386239.1 alpha-glucosidase

Key:
[1] = SSF of maltodextrins with added maltotriose, 24 h (Example 1); parameters: species or system Yeast (Deltaferm® AL-18); settings: SSF 24 h, maltodextrin + 20 g/L maltotriose, enzyme 187.5 kU per ton
Method: (§1) Quantification of ethanol yield Ethanol was quantified via HPLC. Samples were taken at the end of the SSF or during SSF at set time points. Samples were centrifuged for 1 min at 17,000 xg and sterile filtered (0.2 μm). The samples were frozen at −80° C. prior to measurements. Ethanol was determined with an Aminex 87C column (Bio-Rad Laboratories, Inc., US) on a Shimadzu HPLC system.
(§2) For simultaneous saccharification and fermentation (abbreviated SSF), the oligo-1,6-glucosidases—either Agl1 or Gth—were used as crude Bacillus extract. Glucidex® Maltodextrin 12 (Roquette, FR) was dissolved in SSF-medium (5 g/L yeast extract, 5 g/L peptone, 1 g/L K2HIPO4, 0.5 g/L Mg2SO4 in 50 mM citrate buffer, pH 4.8) at 300 g/L. Panose, isomaltose, isomaltotriose, maltose, maltotriose, or trehalose was added at 20 g/L. As a positive control, 20 g/L glucose was added instead of the respective sugar. The SSF medium containing starch hydrolysate (maltodextrins) and sugars was sterile filtered (0.2 μm). Yeast (Deltaferm® AL-18, WeissBioTech GmbH, Ascheberg, Germany) was grown in YINaC medium (50 g/L dextrose, 5 g/L yeast extract, 5 g/L peptone, 1 g/L K2HPO4, 0.5 g/L Mg2SO4*7H2O, 2 g/L NH4Cl in 50 mM sodium citrate, pH 4.8) for 2 days at 37° C. and harvested by centrifugation for 15 min at 5100 rpm and 8° C. Pelleted yeast was added to the SSF-medium at a final concentration of 6 g/L. Glucoamylase (Deltazym® GA L-E5, WeissBioTech GmbH, Ascheberg, Germany) was added at 40 g per ton of dry starch equivalent. The enzyme product Agl1 or Gth was added up to a final concentration of 187.5 kU per ton of dry starch equivalent. For the SSF with trehalose, Agl1 or Gth was added at 937.5 kU per ton of dry starch equivalent. As a negative control, an SSF as described above was run without oligo-1,6-glucosidase/enzyme product. The SSF was performed at 30° C. without stirring or shaking for 24 h.

[2] = Process stability (SSF medium without starch, pH 4.8, 30° C., 72 h); type: physicochemical; settings: after 72 h at 30° C., pH 4.8, SSF medium without starch
Method: Process stability was determined by incubating the enzymes under process conditions (SSF medium without starch, pH 4.8, 30° C.) for 72 h and measuring the remaining activity.

[3] = SSF of maltodextrins with added trehalose, 24 h (Example 1); parameters: species or system Yeast (Deltaferm® AL-18); settings: SSF 24 h, maltodextrin + 20 g/L trehalose, enzyme 937.5 kU per ton
Method: as §1, §2

[4] = SSF of maltodextrins with added panose, 24 h (Example 1); parameters: species or system Yeast (Deltaferm® AL-18); settings: SSF 24 h; for panose concentration reduced by: 20 g/L panose added; for ethanol concentration increase by % compared to the negative control / ethanol concentration increase compared to the negative control: 300 g/L maltodextrin + 20 g/L panose, enzyme 187.5 kU per ton; for ethanol concentration increase compared to the negative control: glucoamylase 40 g/t, 30° C., pH 4.8
Method: as §1
(§3) Residual sugars were quantified via HPLC. Samples were taken at the end of the SSF or during SSF at set time points. Samples were centrifuged for 1 min at 17 000 xg and sterile filtered (0.2 μm). The samples were frozen at −80° C. prior to measurements. Residual sugars were determined with a Zorbax NH2 column (Agilent Technologies, Inc., US) on an Agilent 1200 HPLC system.
as §2

[5] = SSF of commercial liquefied starch with added alpha-amylase, panose content (Example 4); parameters: species or system Yeast (Deltaferm® AL-18); settings: for reduction in panose compared to control / panose detected: after 60 h SSF; for panose detected: liquefied starch with glucoamylase and alpha-amylase, enzyme 187.5 kU per ton; for panose after 72 h: after 72 h SSF
Method: as §3
For SSF, the enzyme product was used as crude Bacillus extract. Acidified liquefied starch from a commercial plant, containing no detectable amounts of panose, isomaltose, isomaltotriose or trehalose, was brought to pH 4.8. SSF medium components (5 g/L yeast extract, 5 g/L peptone, 1 g/L K2HPO4, 0.5 g/L Mg2SO4 in 50 mM citrate buffer, pH 4.8) were added to liquefied starch (300 g/L). The SSF medium containing starch was sterile filtered (0.2 μm). Yeast (Deltaferm® AL-18, WeissBioTech GmbH, Ascheberg, Germany) was grown in YINaC medium (50 g/L dextrose, 5 g/L yeast extract, 5 g/L peptone, 1 g/L K2HIPO4, 0.5 g/L Mg2SO4*7H2O, 2 g/L NH4Cl in 50 mM sodium citrate, pH 4.8) for 2 days at 37° C. and harvested by centrifugation for 15 min at 5100 rpm and 8° C. Pelleted yeast was added to the SSF at a final concentration of 6 g/L. Glucoamylase (Deltazym® GA L-E10, WeissBioTech GmbH, Ascheberg, Germany) was added at 200 g per ton of dry starch equivalent. Alpha-amylase (Fuelzyme®, BASF) was added at 200 g per ton of dry starch equivalent to simulate non-complete removal of alpha-amylase in industrial processes, which is often the cause for increased non-fermentable sugars. The enzyme product Agl1 or Gth was added to a final concentration of 187.5 kU per ton of dry starch equivalent. As control, no oligo-1,6-glucosidase/enzyme product was added. The SSF was performed at 30° C. without stirring or shaking for 72 h.

[6] = SSF of maltodextrins with added maltose, 24 h (Example 1); parameters: species or system Yeast (Deltaferm® AL-18); settings: SSF 24 h, maltodextrin + 20 g/L maltose, enzyme 187.5 kU per ton
Method: as §1, §2

[7] = Storage stability (50% v/v glycerol, 4° C.); type: physicochemical; settings: at 4° C., extrapolated from 12 months data
Method: Storage stability was determined by measuring the activity of the enzymes stored in a glass container in a stabilizing formulation (50% v/v glycerol) at 4° C. over a time period of 12 months. […] “Without a loss in activity” is defined as an extrapolated activity of greater than 95% of the initial activity.

Molecule	ethanol concentration increase by % compared to the negative control [1] [%]	ethanol concentration increase compared to the negative control [1]	process stability (remaining activity) [2] [%]	ethanol concentration increase by % compared to the negative control [3] [%]	ethanol concentration increase compared to the negative control [3]	panose concentration reduced by [4] [%]	ethanol concentration increase by % compared to the negative control [4] [%]	ethanol concentration increase compared to the negative control [4]	reduction in panose compared to control [5] [%]	panose detected [5] [g/L]	panose after 72 h [5]	ethanol concentration increase by % compared to the negative control [6] [%]	ethanol concentration increase compared to the negative control [6]	storage stability without a loss in activity [7]
B1	1	0.03 percentage points (v/v)	80	226	1.86 percentage points (v/v)	96	92	1.01 percentage points (v/v)	50	2.7	completely hydrolysed	1.5	0.03 percentage points (v/v)	18-24 month
B2	0	0.00 percentage points (v/v)	80	31	0.26 percentage points (v/v)	96	85	0.94 percentage points (v/v)	57	2.3	completely hydrolysed	2.8	0.06 percentage points (v/v)	18-24 month
